The source of these data is paper PMC6450523, “Substrate-analogue complex structure of Mycobacterium tuberculosis decaprenyl diphosphate synthase” (Acta Crystallographica. Section F, Structural Biology …, 2019).

The data set concerns the molecule itself. Description: crystal structure; sitting-drop vapour diffusion at 25°C, 0.1 M HEPES pH 7.5, 10% glycerol, 25% PEG 400, 7% PEG 3000; crystals soaked with 1 mM ISPP and 1 mM GSPP for 6 h; 1.55 Å, space group P212121, one dimer in the asymmetric unit.

B1: Decaprenyl diphosphate synthase from Mycobacterium tuberculosis (enzyme)
chain: MARDARKRTSSNFPQLPPAPDDYPTFPDTSTWPVVFPELPAAPYGGPCRPPQHTSKAAAPRIPADRLPNHVAIVMDGNGRWATQRGLARTEGHKMGEAVVIDIACGAIELGIKWLSLYAFSTENWKRSPEEVRFLMGFNRDVVRRRRDTLKKLGVRIRWVGSRPRLWRSVINELAVAEEMTKSNDVITINYCVNYGGRTEITEATREIAREVAAGRLNPERITESTIARHLQRPDIPDVDLFLRTSGEQRSSNFMLWQAAYAEYIFQDKLWPDYDRRDLWAACEEYASRTRRFGSA
notes: also called MtDPPS; Rv2361c
Regarding B1, the “stoichiometry N” value was found to be 2.
